The values that follow come from paper PMC11331971 (Nature, 2023).

Experiment [1] has as its target S441A TMPRSS2 ectodomain, soluble (human, UniProt O15393, S441A). The experiment in a line: BLI. Background: Biolayer interferometry detects binding as a change in optical thickness at a sensor tip.
Experiment [2] has as its target dimeric anti-TMPRSS2 VHH-A01-Fc (alpaca (Lama pacos)). Briefly: flow cytometry on cells. Background: A flow cytometer gives signals particle by particle.
Experiment [3] deals with T1, S441A TMPRSS2 ectodomain, soluble (human, UniProt O15393 106-492, S441A). The experiment in a line: BLI.
Experiment [4] concerns the target T1, S441A TMPRSS2 ectodomain, soluble. The experiment in a line: BLI. The source holds these as a separate data set.

Residue numbers refer to the chain shown, from its start. Names and notes keep the numbering of the source. Read-outs that look alike come from different tables or passages of the source.

Chain of S441A TMPRSS2 ectodomain, soluble (human, UniProt O15393, S441A) (O15393 106-492 S441A): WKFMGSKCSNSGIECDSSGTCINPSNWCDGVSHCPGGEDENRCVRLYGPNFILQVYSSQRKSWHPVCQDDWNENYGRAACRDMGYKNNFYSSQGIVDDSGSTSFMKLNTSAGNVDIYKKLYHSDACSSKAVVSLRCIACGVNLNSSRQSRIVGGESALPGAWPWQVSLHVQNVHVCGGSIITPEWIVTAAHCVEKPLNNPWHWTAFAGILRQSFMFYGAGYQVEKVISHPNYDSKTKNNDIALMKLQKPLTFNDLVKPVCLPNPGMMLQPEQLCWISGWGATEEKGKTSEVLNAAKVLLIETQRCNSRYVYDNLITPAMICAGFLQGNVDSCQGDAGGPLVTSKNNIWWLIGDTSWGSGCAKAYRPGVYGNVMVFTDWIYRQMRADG

B1: anti-TMPRSS2 nanobody VHH-D01 (VHH)
VHH: EVQLVESGGGLVQPGGPLRLSCASSGSTLEHYDIGWFRQVPGGLREGVSSITASGGRTNYADSVKGRFTISRDNGKNAVYLQMNSLKPEDTAVYYCAGKIGGRRNWVAPLDGFENAYWGQGTQVTVSS
With B1, in experiment [1], the Kd (usually the constant that tells how readily two partners part at equilibrium) came out at 6 nM and the koff (usually the rate constant with which the complex falls apart) was 0.00048 s⁻¹.

B2: anti-TMPRSS2 nanobody VHH-C11 (VHH)
VHH: QVQLVESGGGLVQPGGSLRLSCAASGFTLDYYDIYWFRQAPGKEREGVSSITTSGGRTNYADSVKGRFTISRDNAKNTVYLQMNSLKPEDTAVYYCAAKVGGRRNWIAPLNGYENALWGKGTLVTVSS
In experiment [1], B2 displayed a Kd of 32.5 nM and a koff of 0.00023 s⁻¹.

B3: TMPRSS2 (transmembrane-serine protease 2), wild type, on transfected 293T cells (receptor)
chain: MALNSGSPPAIGPYYENHGYQPENPYPAQPTVVPTVYEVHPAQYYPSPVPQYAPRVLTQASNPVVCTQPKSPSGTVCTSKTKKALCITLTLGTFLVGAALAAGLLWKFMGSKCSNSGIECDSSGTCINPSNWCDGVSHCPGGEDENRCVRLYGPNFILQVYSSQRKSWHPVCQDDWNENYGRAACRDMGYKNNFYSSQGIVDDSGSTSFMKLNTSAGNVDIYKKLYHSDACSSKAVVSLRCIACGVNLNSSRQSRIVGGESALPGAWPWQVSLHVQNVHVCGGSIITPEWIVTAAHCVEKPLNNPWHWTAFAGILRQSFMFYGAGYQVEKVISHPNYDSKTKNNDIALMKLQKPLTFNDLVKPVCLPNPGMMLQPEQLCWISGWGATEEKGKTSEVLNAAKVLLIETQRCNSRYVYDNLITPAMICAGFLQGNVDSCQGDSGGPLVTSKNNIWWLIGDTSWGSGCAKAYRPGVYGNVMVFTDWIYRQMRADG
As to B3, the binding result in experiment [2] was “binds”.

B4: HKU1A receptor binding domain (residues 323-609) (domain or fragment)
chain: DLPDCDIDKWLNNFNVPSPLNWERKIFSNCNFNLSTLLRLVHTDSFSCNNFDESKIYGSCFKSIVLDKFAIPNSRRSDLQLGSSGFLQSSNYKIDTTSSSCQLYYSLPAINVTINNYNPSSWNRRYGFNNFNLSSHSVVYSRYCFSVNNTFCPCAKPSFASSCKSHKPPSASCPIGTNYRSCESTTVLDHTDWCRCSCLPDPITAYDPRSCSQKKSLVGVGEHCAGFGVDEEKCGVLDGSYNVSCLCSTDAFLGWSYDTCVSNNRCNIFSNFILNGINSGTTCSNDL
B4 had a Kd in experiment [3] of 334 ± 66.2 nM.

B5: anti-TMPRSS2 nanobody VHH-A07 (VHH)
VHH: QVQLVESGGGLVQPGGSLRLSCTSSGSPLEHYDIIWFRQAPGREREGVSSITTSGGHTNYADSVKDRFTISRDNAKNVVYLQMNSLKPEDTAVYYCAGRVGGRRNWIVPLDGYDNAYWGQGTQVTVSS
Regarding B5, in experiment [1], the affinity, expressed as Kd, was 13.3 nM and the dissociation rate constant (koff) amounted to 0.0011 s⁻¹.

B6: HKU1B receptor binding domain (residues 323-607) (domain or fragment)
chain: NLPDCDIDNWLNNVSVPSPLNWERRIFSNCNFNLSTLLRLVHVDSFSCNNLDKSKIFGSCFNSITVDKFAIPNRRRDDLQLGSSGFLQSSNYKIDISSSSCQLYYSLPLVNVTINNFNPSSWNRRYGFGSFNLSSYDVVYSDHCFSVNSDFCPCADPSVVNSCAKSKPPSAICPAGTKYRHCDLDTTLYVKNWCRCSCLPDPISTYSPNTCPQKKVVVGIGEHCPGLGINEEKCGTQLNHSSCFCSPDAFLGWSFDSCISNNRCNIFSNFIFNGINSGTTCSNDL
modifications: biotinylated with the BirA biotin-protein ligase kit for the BLI experiment with nanobodies only
On to B6, for which the dissociation constant Kd in experiment [4] came out at 131 nM; in experiment [3], 137 ± 20.8 nM.

B7: HKU1B receptor binding domain with the R517A mutation (domain or fragment)
chain: B6 chain with R195A
In the case of B7, the Kd in experiment [3] was 376 ± 96.4 nM.

B8: anti-TMPRSS2 nanobody VHH-A01 (VHH)
VHH: QVQLVESGGGLVQPGGSLRLSCVVSGFSLDYYAIGWFRQAPGKEREGVSCIGSSGDKTNYADSVKGRFTISRDNAKNTVYLQMNSLKPEDTAVYYCAAESALYSDCTEEQNPMLYDYWGQGTQVTVSS
In experiment [1], B8 came in with a dissociation constant Kd of 0.78 nM and a koff of 5.1e-05 s⁻¹.

B9: anti-TMPRSS2 nanobody VHH-F05 (VHH)
VHH: EVQLVESGGGLVQPGGSLRLSCAASGFTLDYYAIGWFRQAPGKEREGVSCISSSGDSIKYVDSVKGRFTISRDNAKNTVYLQMNSLKPEDTAVYQCAADALGSGCLTGNYDYWGQGTRVTVSS
Regarding B9, in experiment [1], the affinity, expressed as Kd, was 2.6 nM and the off-rate constant (koff) turned out to be 0.00019 s⁻¹.
